T1: human CD83 on the cell surface (KM-H2, L428, FDCP1 and BB88 cells transfected with full length human CD83) (human, UniProt Q01151 20-205)
T1 sequence (looked up): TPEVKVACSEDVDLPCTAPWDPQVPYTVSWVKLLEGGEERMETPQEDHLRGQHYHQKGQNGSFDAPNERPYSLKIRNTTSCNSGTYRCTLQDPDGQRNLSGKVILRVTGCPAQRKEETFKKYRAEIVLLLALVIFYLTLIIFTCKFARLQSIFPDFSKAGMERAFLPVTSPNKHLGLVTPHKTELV

T2: recombinant human CD83 extracellular domain with His tag (hCD83ECD-His) (human, UniProt Q01151 20-144)
T2 construct: extracellular domain; Expressed in CHO cells and purified by IMAC; also called recombinant human CD83ECD-His; recombinant CD83; not shown: His tag
T2 sequence (looked up): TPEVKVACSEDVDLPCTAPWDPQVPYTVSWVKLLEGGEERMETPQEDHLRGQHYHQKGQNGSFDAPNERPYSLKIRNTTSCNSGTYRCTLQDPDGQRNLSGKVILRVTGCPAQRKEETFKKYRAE

B1: 3C12.C IgG (affinity matured, VL shuffled variant of 3C12, human IgG1 kappa) (antibody, V domains shown)
VH: EVQLQESGGGVVQPGRSLRLSCAASGFTFSSYAMHWVRQAPGKGLEWVAVISYDGSNKYYADSVKGRFTISRDNSKNTLYLQMNSLRAEDTAMYYCARHYYYGMDVWGQGTTLTVSS
VL: EIVLTQSPSSLSASVGDRVTITCRASQGIRNYLAWYQQKPGKVPKLLIYATSTLQSGVPSRFSGSRSGTEFTLTISSLHPEDFATYYCQQVDRFPYTFGQGTKVELKR
B2: 3C12.D Fab fragment (Fab, V domains shown)
VH: B1 VH
VL: EIQMTQSPSSLSASVGDRVTITCRASQGISSWLAWYQQKPGKAPKLLIYAASSLQSGVPSRFSGSGSGTEFTLTISSLQPDDFATYYCQKLSSYPYTFGGGTKVELKR
B3: 3C12.Kif IgG (3C12 produced in the presence of kifunensine, low-fucose IgG) (antibody, V domains shown)
VH: B1 VH
VL: EIVMTQSPSLLSASLGDRVTITCRASQGIKNYFAWYQQRPGKAPKLLIYATSNLQSGVPSRFSGSGSGTEFTLTISSLQPEDFATYYCQQLGAYPLTFGGGTKLELKR
modifications: N-glycan without fucose (high mannose, predominantly GlcNAc2Man9), produced with 2 µg/mL kifunensine
B4: 3C12.WT Fab fragment (Fab, V domains shown)
VH: B1 VH
VL: B3 VL
notes: also called 3C12 Fab; wildtype 3C12 Fab
B5: 3C12.C Fab fragment (Fab, V domains shown)
VH: B1 VH
VL: B1 VL
B6: 3C12.B Fab fragment (Fab, V domains shown)
VH: B1 VH
VL: EVVMTQSPSFLSASIGDRVSITCRTSQGISNHLAWYQQKPGKAPKLLIYAASSLQSGVPSRFSGSGSGTDFTLTISSLQPEDIATYYCQQVNSYPYTFGQGTRLELKR
B7: 3C12.E Fab fragment (Fab, V domains shown)
VH: B1 VH
VL: EIVLTQSPSSLSASVGDRVTITCRASQGISNYLAWYQQKPGKVPKLLIYAASTLQSGVPSRFSGSGSGTHFTLTISSLQPEDVATYYCQKCNSAPYTFGQGTKVELKR

Key:
[1] = molecular target: T1, human CD83 on the cell surface (KM-H2, …); assay: cell-based or functional assay
[2] = molecular target: T2, recombinant human CD83 extracellular …; assay: BiaCore SPR, Fab over immobilised hCD83ECD, 1:1 model with mass transfer
Procedure: (§1) Fab fragments were generated by papain digestion with Pierce Fab MicroFab Preparation Kit, as per the manufacturer's instructions except that the kit-provided Protein A resin was replaced with MAbSelect SuRE resin (Seldon et al., J. Biomol. Tech. 22: 50-2, 2011). Fab were diluted in HBS-EP buffer consisting of 10 mM Hepes, 150 mM Sodium Chloride, 3 mM EDTA, and 0.005% Polysorbate 20 (GE Healthcare). Diluted Fab were assessed for affinity using a BiaCore3000 (GE Healthcare) instrument equipped with a CMS chip coupled with 100 Resonance Units (RU) of hCD83ECD-His protein, using the Kinetic Analysis wizard protocol. Kinetic rates were estimated using BiaEvaluation Software (GE Healthcare) using the inbuilt 1:1 binding model with mass transfer limitations.
(§2) FIG. 7A graphically highlights these improvements of 3C12.C binding relative to 3C12.WT, as higher binding signal intensity (i.e., RU) is achieved using reduced concentrations of the VL shuffled variant during the […] Kₒₙ-dependent Association Phase. Similarly, a slower off-rate is observed for 3C12.C Fab during the Koff-dependent dissociation phase.

[3] = molecular target: T2, recombinant human CD83 extracellular …; assay: BiaCore SPR, Fab over immobilised hCD83ECD
Procedure: as §1

[4] = molecular target: T2, recombinant human CD83 extracellular …; assay: Biacore SPR, Fab
Procedure: as §1, §2

Binder	ADCC potency in a chromium release assay, fold against 3C12.WT [1]	Kd [2]	koff [2]	kon [2]	Kd [3]	koff [3]	kon [3]	fold reduction in on-rate relative to 3C12 wildtype [4]
B1	> 25 fold							
B2		25 nM	0.027 s⁻¹	1.1e+06 M⁻¹ s⁻¹				
B3	> 25 fold							
B4		130 nM	0.12 s⁻¹	900000 M⁻¹ s⁻¹	130 nM	0.12 s⁻¹	950000 M⁻¹ s⁻¹	
B5		6.1 nM	0.0078 s⁻¹	1.3e+06 M⁻¹ s⁻¹				
B6		43 nM	0.014 s⁻¹	320000 M⁻¹ s⁻¹				~3 fold
B7		42 nM	0.05 s⁻¹	1.2e+06 M⁻¹ s⁻¹				

Reference: patent US20200339684A1 (published 2020)
